Assay results reported in US20140199314A1.

Biological target: BMP-2 (UniProt P12643)
Assay: cell-based or functional assay

Sequence of UniProt P12643 (P12643 283-396 limits assumed): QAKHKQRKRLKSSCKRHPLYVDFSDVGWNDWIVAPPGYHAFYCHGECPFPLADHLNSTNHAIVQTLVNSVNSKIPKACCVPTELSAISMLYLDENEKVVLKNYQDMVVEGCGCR

inhibition of BMP-2 induction of hepcidin promoter activity (luciferase) by 20% pooled serum from DRAGON.Fc treated mice; serum from mock treated control mice inhibited by about 30%: > 70%
Substance: DRAGON.Fc (soluble DRAGON fused to the Fc portion of human immunoglobulin) (from UniProt Q6NW40 46-409) (Fc fusion)
